What was measured:
human PROKR1 [1] = molecular target: T1, human PROKR1 (human, UniProt Q8TCW9 1-393); experiment: cell-based or functional assay
human PROKR2 [2] = molecular target: T2, human PROKR2 (human, UniProt Q8NFJ6 1-384); experiment: flow cytometry, HEK293 cells expressing the target
T2 construct: Expressed on engineered HEK293 or CHO cells; also called hPROKR2; prokineticin receptor 2
Description: (§1) Anti-PROKR antibodies generated in accordance with Example 1 were tested for the ability to bind to human, mouse, and monkey PROKR1 and PROKR2. For these experiments, HEK293 cells were engineered to express: human PROKR1; human PROKR2; mouse PROKR1; mouse PROKR2; cynomolgus monkey PROKR1; or cynomolgus monkey PROKR2. Binding of anti-human PROKR antibodies to the PROKR-expressing cell lines was measured by flow cytometry.
(§2) Adherent cells were collected using 1 mM EDTA in PBS, then washed, and re-suspended in cold PBS containing 5% FBS. For the binding experiments, each anti-PROKR antibody was added to 250,000 cells in 500 μl of PBS with 5% FBS (final antibody concentration of 13 nM). After incubation for 20 minutes at room temperature, the cells were washed with PBS containing 5% FBS. A secondary antibody, recognizing either human (Jackson Immuno Research, #115-135-205) or mouse Fc (BD Pharmigen, #550826) and conjugated to allophycyanin, was then added to the cell mixture at a final concentration of 13.3 nM. After incubating for 20 minutes on ice, the cells were washed and resuspended in PBS containing 5% FBS and then sorted and analyzed on a FACSCalibur (BD Biosciences) flow cytometer to determine relative binding by the candidate antibodies. The cell samples containing secondary antibody alone were used as negative control for FACS gating. Histograms of cells stained with anti-human PROKR antibodies were compared with cells stained with secondary alone. […] ND=not determined.

human PROKR1 (1-62)-hFc = molecular target: T3, human PROKR1 (1-62)-hFc (human); experiment: SPR (Biacore 4000), 25 C, antibody captured, antigen injected at 25 and 100 nM
T3 construct: also called soluble human PROKR1 (N-terminal portion)
Description: (§3) Kinetic experiments were carried out using HBS-EP (10 mM HEPES, 150 mM NaCl, 3 mM EDTA, 0.05% Surfactant P20, pH 7.4) as both the running buffer and the sample buffer. Antigen-antibody association rates were measured by injecting 2 concentrations (25 and 100 nM) of both human PROKR1 (1-62)-hFc (SEQ ID NO:179) and human PROKR2(1-53)-hFc (SEQ ID NO:180) over the captured antibody surface. Antibody-antigen association was monitored for 90 seconds while dissociation was monitored for 360 seconds. Kinetic on-rate (kₐ) and off-rate (kd) constants were determined from the data using Scrubber software version 2.0 c. Binding dissociation equilibrium constants (KD) and dissociative half-lives (t 1/2) were calculated from the kinetic rate constants as: KD=kd/kₐ and t 1/2=ln(2)/kd.

human PROKR2(1-53)-hFc [3] = molecular target: T4, human PROKR2(1-53)-hFc (human); experiment: SPR (Biacore 4000), 25 C, antibody captured
T4 construct: also called soluble human PROKR2 (N-terminal portion)
Description: as §3

human PROKR2(1-53)-hFc [4] = molecular target: T4, human PROKR2(1-53)-hFc; experiment: SPR (Biacore 4000), 25 C, antibody captured, antigen injected at 25 and 100 nM
Description: as §3

mouse PROKR1 = mouse PROKR1 (mouse (Mus musculus), UniProt Q9JKL1 1-393); experiment: cell-based or functional assay
mouse PROKR2 = molecular target: T5, mouse PROKR2 (mouse (Mus musculus), UniProt Q8K458 1-381); experiment: flow cytometry, HEK293 cells expressing the target, 13 nM antibody
T5 construct: whole, on cells; Expressed on engineered HEK293 or CHO cells; also called mPROKR2; CHO/mPROKR2
Description: as §1, §2

human PROKR2 [5] = molecular target: T2, human PROKR2; experiment: as above
Description: as §1, §2

human PROKR1 [6] = molecular target: T1, human PROKR1; experiment: cell-based or functional assay; remark: listed apart in the source
cynomolgus monkey PROKR1 = cynomolgus monkey PROKR1 (cynomolgus monkey (Macaca fascicularis), UniProt G7PMD0 1-393); experiment: cell-based or functional assay
rat PROKR1 = rat PROKR1 (rat (Rattus norvegicus), UniProt Q8R416 1-393); experiment: cell-based or functional assay
rat PROKR1, sequence (Q8R416 whole entry): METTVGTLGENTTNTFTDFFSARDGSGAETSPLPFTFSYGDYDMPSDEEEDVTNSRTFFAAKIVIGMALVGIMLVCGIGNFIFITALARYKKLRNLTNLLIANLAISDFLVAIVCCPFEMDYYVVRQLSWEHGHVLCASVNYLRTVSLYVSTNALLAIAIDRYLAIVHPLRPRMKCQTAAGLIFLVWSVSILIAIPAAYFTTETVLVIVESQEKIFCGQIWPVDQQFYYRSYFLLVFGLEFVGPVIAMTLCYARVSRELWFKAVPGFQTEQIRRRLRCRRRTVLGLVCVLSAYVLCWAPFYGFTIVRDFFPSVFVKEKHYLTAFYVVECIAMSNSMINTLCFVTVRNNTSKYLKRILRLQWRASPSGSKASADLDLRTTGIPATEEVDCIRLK

T2 sequence (Q8NFJ6 whole entry): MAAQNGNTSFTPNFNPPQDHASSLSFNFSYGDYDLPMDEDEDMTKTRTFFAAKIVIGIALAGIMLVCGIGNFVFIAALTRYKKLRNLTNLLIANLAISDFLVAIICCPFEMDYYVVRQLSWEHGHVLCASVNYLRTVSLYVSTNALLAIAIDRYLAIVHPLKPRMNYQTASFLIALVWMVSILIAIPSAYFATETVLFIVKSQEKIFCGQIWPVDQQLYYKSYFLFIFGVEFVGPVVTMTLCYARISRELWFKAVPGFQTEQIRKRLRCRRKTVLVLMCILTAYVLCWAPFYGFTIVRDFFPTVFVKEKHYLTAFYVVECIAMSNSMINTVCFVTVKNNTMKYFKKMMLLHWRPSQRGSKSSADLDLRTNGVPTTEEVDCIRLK
cynomolgus monkey PROKR1, sequence (G7PMD0 entry or part of it): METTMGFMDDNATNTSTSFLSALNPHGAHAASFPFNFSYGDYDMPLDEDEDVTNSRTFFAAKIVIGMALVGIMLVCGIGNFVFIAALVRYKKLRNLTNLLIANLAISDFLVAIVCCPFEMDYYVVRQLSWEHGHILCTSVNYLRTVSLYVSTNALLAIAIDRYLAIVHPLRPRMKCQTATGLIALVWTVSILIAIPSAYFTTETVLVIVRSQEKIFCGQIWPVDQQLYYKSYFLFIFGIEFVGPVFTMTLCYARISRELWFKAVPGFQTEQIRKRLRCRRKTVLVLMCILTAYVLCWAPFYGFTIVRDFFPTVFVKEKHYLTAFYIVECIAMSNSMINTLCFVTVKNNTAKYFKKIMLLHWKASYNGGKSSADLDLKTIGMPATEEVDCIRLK
T3 sequence (chain, as listed by the source limits assumed): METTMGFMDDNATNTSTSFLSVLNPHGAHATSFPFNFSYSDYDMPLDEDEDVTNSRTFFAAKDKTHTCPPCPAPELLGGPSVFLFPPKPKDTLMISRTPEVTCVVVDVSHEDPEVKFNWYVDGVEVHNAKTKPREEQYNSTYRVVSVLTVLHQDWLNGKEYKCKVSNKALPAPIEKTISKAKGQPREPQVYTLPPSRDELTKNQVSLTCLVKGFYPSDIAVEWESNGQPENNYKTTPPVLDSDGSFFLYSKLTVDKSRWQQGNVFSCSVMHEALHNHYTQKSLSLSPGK
T1 sequence (Q8TCW9 whole entry): as the sequence (G7PMD0 entry or part of it) above, with A22V, A31T, G40S, V82I, I135V, R210K, F246V, N348D, A350V counted along it
mouse PROKR1, sequence (Q9JKL1 whole entry): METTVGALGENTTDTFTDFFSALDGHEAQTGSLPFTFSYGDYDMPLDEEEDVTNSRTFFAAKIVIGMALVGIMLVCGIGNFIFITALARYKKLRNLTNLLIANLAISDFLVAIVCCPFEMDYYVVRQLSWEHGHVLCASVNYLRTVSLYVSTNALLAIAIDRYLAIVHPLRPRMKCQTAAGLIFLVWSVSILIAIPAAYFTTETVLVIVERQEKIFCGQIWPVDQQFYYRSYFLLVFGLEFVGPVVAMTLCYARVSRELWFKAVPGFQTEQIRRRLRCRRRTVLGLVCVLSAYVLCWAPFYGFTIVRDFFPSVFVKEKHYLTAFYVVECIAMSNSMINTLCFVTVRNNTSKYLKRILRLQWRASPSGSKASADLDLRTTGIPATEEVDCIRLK
T5 sequence (Q8K458 whole entry): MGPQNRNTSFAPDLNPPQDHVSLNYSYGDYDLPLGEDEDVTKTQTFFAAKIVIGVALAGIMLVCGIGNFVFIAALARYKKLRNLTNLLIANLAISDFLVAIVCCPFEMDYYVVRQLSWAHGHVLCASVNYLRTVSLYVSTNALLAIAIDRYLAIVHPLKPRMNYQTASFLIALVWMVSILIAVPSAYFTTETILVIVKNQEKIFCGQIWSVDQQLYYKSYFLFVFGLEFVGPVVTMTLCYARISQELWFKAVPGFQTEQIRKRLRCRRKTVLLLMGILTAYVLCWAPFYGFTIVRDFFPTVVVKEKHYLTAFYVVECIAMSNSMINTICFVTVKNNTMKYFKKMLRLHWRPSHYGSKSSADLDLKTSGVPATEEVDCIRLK

Binder	Block (%), calcium flux, hPROKR1 + PK1 (20 nM hPK1) (human PROKR1 [1]) [%]	IC50 (nM), inhibition of calcium flux, hPROKR1 + PK1 (20 nM hPK1) (human PROKR1 [1]) [nM]	binding result (human PROKR2 [2])	Kd (human PROKR1 (1-62)-hFc) [nM]	koff (human PROKR1 (1-62)-hFc) [s⁻¹]	kon (human PROKR1 (1-62)-hFc) [M⁻¹ s⁻¹]	t½ (human PROKR1 (1-62)-hFc) [min]	Kd (human PROKR2(1-53)-hFc [4]) [nM]	koff (human PROKR2(1-53)-hFc [4]) [s⁻¹]	kon (human PROKR2(1-53)-hFc [4]) [M⁻¹ s⁻¹]	t½ (human PROKR2(1-53)-hFc [4]) [min]	Block (%), calcium flux, mPROKR1 + PK1 (1 nM hPK1) (mouse PROKR1) [%]	binding result (human PROKR2 [5])	Block (%), calcium flux, hPROKR1 + PK1 (1 nM hPK1) (human PROKR1 [1]) [%]	Block (%), calcium flux, hPROKR1 + PK2 (1 nM hPK2) (human PROKR1 [1]) [%]	IC50 (nM), inhibition of calcium flux, hPROKR1 + PK1 (1 nM hPK1) (human PROKR1 [1]) [nM]	IC50 (nM), inhibition of calcium flux, hPROKR1 + PK2 (1 nM hPK2) (human PROKR1 [1]) [nM]	IC50 (nM), blocking of hPK2 induced calcium flux, CHO/hPROKR1 non-induced (4 nM hPK2) (human PROKR1 [6]) [nM]	Block (%), calcium flux, MfPROKR1 + PK1 (5 nM hPK1) (cynomolgus monkey PROKR1) [%]	binding result (human PROKR2(1-53)-hFc [3])	other results
H4H6706P (antibody, human IgG4, V domains shown) VH: EVQLVESGGGLIKPGGSLRLSCAASGFTFSNAWMSWVRQAPGKGLEWVGRIKRKSDGGTTDYAAPVKGRFTISRDDSKNTMYLQMNSLKTEDTAVYYCTPSGSYYGYWGQGTLVTVSS VL: not shown	59.1	11.2	no binding	1.09	0.000213	196000	54													no binding (tested: 25 and 100 nM antigen injected)	
H4H6671P (antibody, human IgG4, V domains shown) VH: EVQLVESGGGLVKPGGSLRLSCAASGFTFSNAWMSWVRQAPGKGLEWVGRIKSRSDGGTTDYAAPVKGRFTISRDDSKNTLYLQMNSLKTEDTALYYCSPPGSHYGYWGQGTLVTVSS VL: not shown	45	14.5	no binding	1.83	0.000362	198000	32					0								no binding (tested: 25 and 100 nM antigen injected)	
H4H6698P (antibody, human IgG4, V domains shown) VH: EVQLVESGGGLVKPGGSLRLSCAASGFTFSNVWMTWVRQAPGKGLEWVGRIKTKTDGGTTDYAAPVKGRFTISRDDSKNSLYLQMSSLKTEDTAVYYCTTGHTSYWGQGTLVTVSS VL: not shown				1.12	0.000287	255000	40	16.1	0.00857	533000	1	0	binds	101	40	8.5	> 300	27.4	99.3		binding result (mouse PROKR2): binds; IC50 (nM), blocking of hPK1 induced calcium flux, CHO/hPROKR1 non-induced (40 nM hPK1) (human PROKR1 [6]): 3.1 nM; Block (%), calcium flux, MfPROKR1 + PK2 (0.5 nM hPK2) (cynomolgus monkey PROKR1): 85.7%; IC50 (nM), inhibition of calcium flux, MfPROKR1 + PK1 (5 nM hPK1) (cynomolgus monkey PROKR1): 32.9 nM; IC50 (nM), inhibition of calcium flux, MfPROKR1 + PK2 (0.5 nM hPK2) (cynomolgus monkey PROKR1): 63.9 nM; Block (%), calcium flux, rPROKR1 + PK1 (1 nM hPK1) (rat PROKR1): 0%
H4H6663P (antibody, human IgG4, V domains shown) VH: EVQLVESGGGLVKPGGSLRLSCAASGFTFSNAWMSWVRQVPGKGLEWVGRIKSKTDGGTTDYAAPVKGRFTISRDDPKNTLYLQMYSLKTEDTAVYYCTTRSMQYWGQGTLVTVSS VL: DIVMTQTPLSSPVTLGQPASISCRSSQSLVHSDGYTYLNWLQQRPGQPPRLLIYKISNRFSGVPDRFSGSGAGTDFTLKISRVEAEDVGIYYCMQATQFPTFGQGTKVEIK	15.5	> 1000		10.6	0.0062	583000	2	129	0.0134	104000	1		binds								

Continued, in another order:

Block (%), calcium flux, hPROKR1 + PK1 (20 nM hPK1) (human PROKR1 [1]) [%]	IC50 (nM), inhibition of calcium flux, hPROKR1 + PK1 (20 nM hPK1) (human PROKR1 [1]) [nM]	binding result (human PROKR2 [2])	Kd (human PROKR1 (1-62)-hFc) [nM]	koff (human PROKR1 (1-62)-hFc) [s⁻¹]	kon (human PROKR1 (1-62)-hFc) [M⁻¹ s⁻¹]	t½ (human PROKR1 (1-62)-hFc) [min]	Kd (human PROKR2(1-53)-hFc [4]) [nM]	koff (human PROKR2(1-53)-hFc [4]) [s⁻¹]	kon (human PROKR2(1-53)-hFc [4]) [M⁻¹ s⁻¹]	t½ (human PROKR2(1-53)-hFc [4]) [min]	Block (%), calcium flux, mPROKR1 + PK1 (1 nM hPK1) (mouse PROKR1) [%]	binding result (human PROKR2 [5])	Block (%), calcium flux, hPROKR1 + PK1 (1 nM hPK1) (human PROKR1 [1]) [%]	Block (%), calcium flux, hPROKR1 + PK2 (1 nM hPK2) (human PROKR1 [1]) [%]	IC50 (nM), inhibition of calcium flux, hPROKR1 + PK1 (1 nM hPK1) (human PROKR1 [1]) [nM]	IC50 (nM), inhibition of calcium flux, hPROKR1 + PK2 (1 nM hPK2) (human PROKR1 [1]) [nM]	IC50 (nM), blocking of hPK2 induced calcium flux, CHO/hPROKR1 non-induced (4 nM hPK2) (human PROKR1 [6]) [nM]	Block (%), calcium flux, MfPROKR1 + PK1 (5 nM hPK1) (cynomolgus monkey PROKR1) [%]	Binder	binding result (human PROKR2(1-53)-hFc [3])	other results
51	16.4		0.197	4.55e-05	231000	254	4.23	0.000253	59900	46	0								H4H6680P (antibody, human IgG4, V domains shown) VH: EVQLVESGGGLVKPGGSLRLSCAVSGFTFSNAWMTWVRQTPGKGLEWVGRIKRKNEGGTIDYAAPVKGRFTISRDDSKNTLYLQMNSLKTEDTAVYYCTPSGSYYGYWGQGTLVTVSS VL: not shown		
52.4	14	no binding	0.264	6.23e-05	236000	186					0								H4H6669P (antibody, human IgG4, V domains shown) VH: EVQLVESGGGLVKPGGSLRLSCAASGFTFSNAWMTWVRQAPGKGLEWVGRIKRKNDGGTIDYAAPVKGRFTISRDDSKNTLYLQMNSLRTEDTAVYYCIPSGSYYGYWGQGTLVTVSS VL: not shown	no binding (tested: 25 and 100 nM antigen injected)	
			1.07	0.000412	385000	28	2.41	0.00215	891000	5	20.9	binds	98.5	56.6	6.6	> 300	21.9	101	H4H6701P (antibody, human IgG4, V domains shown) VH: EVQLVESGGGLVKPGGSLRLSCAASGFTFSNAWMTWVRQAPGKGLEWVGRTKTKTEGGTTDYAAPVKGRFTISRDDSKNTLYLQMNSLKTEDTAVYYCTTGHIFYWGQGTLVTVSS VL: not shown		binding result (mouse PROKR2): binds; IC50 (nM), blocking of hPK1 induced calcium flux, CHO/hPROKR1 non-induced (40 nM hPK1) (human PROKR1 [6]): 4.1 nM; Block (%), calcium flux, MfPROKR1 + PK2 (0.5 nM hPK2) (cynomolgus monkey PROKR1): 50.5%; IC50 (nM), inhibition of calcium flux, MfPROKR1 + PK1 (5 nM hPK1) (cynomolgus monkey PROKR1): 6.4 nM; IC50 (nM), inhibition of calcium flux, MfPROKR1 + PK2 (0.5 nM hPK2) (cynomolgus monkey PROKR1): > 300 nM; Block (%), calcium flux, rPROKR1 + PK1 (1 nM hPK1) (rat PROKR1): 0%; IC50 (nM), inhibition of calcium flux, mPROKR1 + PK1 (1 nM hPK1) (mouse PROKR1): > 300 nM
			0.461	0.000136	294000	85	11	0.00539	489000	2	0		101	77.5	6.3	55.1	20	101	H4H6385N (antibody, human IgG4, V domains shown, Form used in SPR and calcium assays; also called H4HM6385N) VH: EVQVVESGGGLVKPGGSLRLSCAASGFTFSNVWMTWVRQAPGKGLEWVGRIKSKIEGGTTDYAASVKGRFTISRDDSKNTQSLQMNSLKSEDTAVYYCSTGHLAYWGQGTLVIVSS VL: DIVMTQTPLSSPVSLGQPASISCRSSQSLVHSDGSTYLSWLQQRPGQPPRLLIYKISNRFSGVPDRFSGSGAGTDFTLKISRVEAEDVGIYYCMQATQFPTFGQGTKVEIK		IC50 (nM), blocking of hPK1 induced calcium flux, CHO/hPROKR1 non-induced (40 or 80 nM hPK1, average) (human PROKR1 [6]): 14.2 nM; Block (%), calcium flux, MfPROKR1 + PK2 (0.5 nM hPK2) (cynomolgus monkey PROKR1): 93.7%; IC50 (nM), inhibition of calcium flux, MfPROKR1 + PK1 (5 nM hPK1) (cynomolgus monkey PROKR1): 6.7 nM; IC50 (nM), inhibition of calcium flux, MfPROKR1 + PK2 (0.5 nM hPK2) (cynomolgus monkey PROKR1): 51.8 nM; Block (%), calcium flux, rPROKR1 + PK1 (1 nM hPK1) (rat PROKR1): 0%

From patent US20150266957A1 (Regeneron, published 2015)
